Measured values reported in PMC4053799, “RNA Detection in Live Bacterial Cells Using Fluorescent Protein Complementation Triggered by Interaction of Two RNA Aptamers with Two RNA-Binding Peptides”.

Legend:
Conditions in all cases: label: none (ethidium bromide stain)
HTLV-1 Rex peptide [1] = target: T1, HTLV-1 Rex peptide (HTLV-1, UniProt P0C206); experiment: EMSA; peptide in excess over RNA; ++; 50 mM Tris-HCl pH 8.0, 50 mM KCl, 30 °C 15 min; RNA refolded from 95 °C; 15% PAGE in Tris-borate-EDTA, ethidium bromide stain
T1 chain: MPKTRRRPRRSQRKRP

bacteriophage λN peptide = target: T2, bacteriophage λN peptide (bacteriophage lambda, UniProt P03045); experiment: EMSA; 50 mM Tris-HCl pH 8.0, 50 mM KCl, 30 °C 15 min; RNA refolded from 95 °C; 15% PAGE in Tris-borate-EDTA, ethidium bromide stain
T2 chain: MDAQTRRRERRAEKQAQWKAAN

HTLV-1 Rex peptide [2] = target: T1, HTLV-1 Rex peptide; experiment: as above

Question: What does the source list for UAGGCGACGGUACGCAAGUACUCUUGCGCCGGCCUA (structured_RNA) [HTLV-1 Rex aptamer]?
Answer: apparent K (half saturation) (HTLV-1 Rex peptide [1]): ~300 nM; binding result (bacteriophage λN peptide): no binding

Question: Does GGCUGGACUCGUACUUCGGUACUGGAGAAACAGCC (structured_RNA) [HIV-1 Rev aptamer] bind (bacteriophage λN peptide)?
Answer: no binding

Question: Does GGCUGGACUCGUACUUCGGUACUGGAGAAACAGCC (structured_RNA) [HIV-1 Rev aptamer] bind (HTLV-1 Rex peptide [2])?
Answer: no binding
